We go through two molecules from US8420311B2, “Method to block the infection by flaviviruses, molecules and uses” (Centro de Ingenieria Genetica y Biotecnologia, priority 2006, dated 2013).

For assay [1], the system named is DV2. Format: cell-based, dengue virus. To be noted: protein 25 μg/mL pre-incubated with virus 1 hour at 25° C. On the procedure:
(§1) FIG. 21. Chromatographic profile of the purification of the A2MR using affinity chormatography with immobilized A2M (A) and SDS-PAGE analysis of fractions eluted using a 5-15% gradient gel (B). Effect of the pre-incubation of chromatography fractions with DV2 on the infection of Vero cells (C). The plaque reduction neutralization assay was performed as described in FIG. 20. (D) Mice protection assay using the DV-induced encephalitis model.
To this aim, a viral preparation containing 100 infective viral particles was pre-incubated with the different fractions at a protein concentration of 25 μg/mL for 1 hour at 25° C. Next, the virus was added to Vero cell monolayers and infection was allowed to occur for 45 minutes at 37° C. Afterwards virus/protein mixtures were removed, the cells were washed with fresh medium and finally the cells were incubated for 5 days at 37° C. in high density medium.

The subject of assay [2] is DV2. Nature of the assay: Mice protection assay using the DV-induced encephalitis model. Format: in vivo, Balb/C mice. Particulars: intra-cranial lethal dosis of DV2 (FIG. 21D). On the procedure:
as §1
FIG. 22. Mice protection assay using the DV-induced encephalitis model. PepNR GAGs binding: peptide formed by a sequence fragment of binding to glycosaminoglycans and a non-related sequence fragment.
Groups of 12 adult Balb/C mice (20 g average body weight) were anesthesized, inoculated by intracranial injection with lethal dosis of DV2 and observed daily for 21 days. The mixtures of peptides with the virus were inoculated in the same way. The volume of the sample inoculated was 20 μL.
The mouse model of dengue encephalitis was used to investigate the potential of the peptide HDIII3CL to protect against DV2 infection. A group of 12 mice were inoculated with lethal dosis of DV2 in combination with 15 μg and 1.5 μg of HDIII3CL peptide. As negative control was used a peptide composed by fragment of 14 aminoacids of a sequence with known heparin binding activity followed by 16 aminoacids of a sequence non-related to the envelope protein of DV. […]

The subject of assay [3] is DV. The assay can be described thus: Inhibition of the infection of Vero cells with DV by pre-incubation of the virus with A2M. The class given is cell-based, dengue virus. To be noted: stated to correspond with the affinity constant for DIIIE2J. On the procedure: (§2) FIG. 20. Inhibition of the infection of Vero cells with DV by pre-incubation with A2M. Viral preparations were incubated 1 h at 25° C. (A and C) or the indicated time (B) with the proteins i. e. activated A2M (A2Mact), non-activated A2M (A2M no act) and a non-related protein (NR). The mixtures of the proteins with the virus were added to monolayers of Vero cells and incubated for 1 h at 37° C. The cell monolayers were washed to eliminate non-bound virus. Next, medium MEM supplemented with non-essential amino acids and 1% FBS, 1% CMC was added and the cells were incubated for 5 days at 37° C. in a CO2 incubator. To visualize the viral plaques, Vero cells were stained using Naphtol Blue Black. All experimental points were performed on duplicates.
To obtain further evidences of the interaction of DV with A2M, the two variants of the protein i.e. activated and non-activated were used in assays of inhibition of infection of Vero cells. The viral preparation was incubated with solutions of activated A2M of higher concentrations than the physiological concentrations reached by this variant of the protein. Solutions of equimolar concentration of non-activated A2M and a non-related protein were used as negative controls. […]

Assay [4] has as its target T1, DIIIE2J (DIII from protein E of DV2) (Dengue virus type 2, UniProt P07564).
T1 construct: made in house; host or cells: Escherichia coli BL21(DE3)
The assay can be described thus: Direct binding between DIIIE2J and A2M measured by Biacore. To be noted: restated in example 10. Further details: species or system DV2 strain Jamaica 1409. On the procedure:
FIG. 6. Direct binding between DIIIE2J and A2M, measured by Biacore. Response curves obtained during and after the injection of (B) Monoclonal antibodies against DV serotype 2 (3H5) and against all FV (4G2); (C) Polyclonal mouse antibody preparations obtained by immunization with DV1 and DV2, including pre-immune sera and (D) A2M dilutions, at concentrations from 0.3 μMol/L to 3 μMol/L. The run was performed on PBS pH 7.4 at 25° C. The different A2M dilutions were loaded at a flow of 5 μL/min for 20 min. The response is represented in resonance units (RU) corrected for unspecific binding using the response from the channel without immobilized protein (less than 5% of the specific signal).
A cm5 chip (Biacore, Sweden) was used for the covalent immobilization of the DIIIE2J and LRP1 proteins. The immobilization was carried out at 25° C., with a flow of 5 μL/min and using HBS (Biacore, Sweden) as running buffer. The surface of the chip was activated by loading 35 μL of 0.2 Mol/L […] (EDC) and 0.05 Mol/L N-hydroxysuccinimide (NHS). Afterwards the proteins, dissolved in 10 mM sodium acetate buffer pH 4.5, were loaded into the system. At the end of the immobilization, 35 μL of 1 M ethanolamine pH 8 were loaded into the system in order to block any remaining free activated groups. The channel to be used as a negative control in each case received only the activating injections with the EDC:NHS solution and the blocking with ethanolamine, employing the same flow and injection volume. The results were analyzed using the BIAevaluation ver. 4.1 software application package (Biacore, Sweden).
In order to estimate the strength of the interaction between DIIIE2J and human A2M, 1600 RU of DIIIE2J were covalently immobilized on a CM5 chip (channel 1, FIG. 6A) (Biacore, Sweden), following the procedure described in the Materials and Methods section. […]
For orientation: In SPR one partner is held on a chip, and binding of the other changes the refractive index at the surface.

In assay [5] the test system is serotype 3 of DV. The assay can be described thus: Inhibition of the infection of Vero cells with DV by pre-incubation of the virus with A2M. Format: cell-based, dengue virus. To be noted: FIG. 20C. On the procedure: as §2
The test system of assay [6] is serotype 1 of DV. The description is as above. Format: cell-based, dengue virus. To be noted: FIG. 20C. On the procedure: as §2
Assay [7] relates to Vero cells. Nature of the assay: Binding of fluoresceinated proteins to the surface of Vero cells (flow cytometry). Format: cell-based, monkey. Particulars: fluoresceinated proteins (FIG. 7A). On the procedure: FIG. 7. Inhibition of the binding of DIIIE2J to Vero cells by A2M and RAPR13. The pre-fixed cells were incubated with the fluoresceinated proteins, and the intensity of the fluorescence due to binding of the fluoresceinated ligands to the cells was measured by flow cytometry. Each experimental point represents data gathered from a minimum of 20 000 cells. (A) Binding of A2M and RAPR13 to the cells. The depicted values correspond to the average of the intensity of the fluorescence at each point of the assay minus the fluorescence obtained with untreated cells. (B) and (C) The cells were incubated with fluoresceinated DIIIE2J in the presence or absence of the non-fluoresceinated ligands, using the molar ratio indicated on each case. The % binding was calculated from the ratio of the average intensity of the fluorescence of the cells incubated with the mixture of fluoresceinated DIIIE2J plus the proteins, between that of the cells incubated only with fluoresceinated DIIIE2J.
In the case of cultured Vero cells, they were detached from the surface of the culture flask without using proteases, by incubation with PBS pH 7.4, 5 mM EDTA for 10 min. at 37° C., gently tapping the outside of the flask.
The cells, collected and washed as described above, were incubated in fixing solution (PBS pH 7.4, 2% paraformaldehyde, 0.01% NaN3, 1 mM CaCl2, 1 mM MgCl2 for 30 min at 4° C., and the fixing solution was then eliminated by centrifugation at 350×g for 5 min a 4° C. […] The intensity of the fluorescence was quantified by flow cytometry on a PAS III cytometer (Partec, Germany). The values for each experimental point were calculated from measurements on a minimum of 20 000 cells.
Given that this cell line is derived from monkey kidney cells and that the ligands for the A2MR receptor used in the assays are of human origin, a preliminary and necessary step was the corroboration of the binding of the RAPR13 and A2M MeNH2 proteins to Vero cells. With this aim, these proteins were fluoresceinated, and their binding to the surface of Vero cells was measured using flow cytometry. […]

T1 sequence (P07564 568-687, looked up, natural form): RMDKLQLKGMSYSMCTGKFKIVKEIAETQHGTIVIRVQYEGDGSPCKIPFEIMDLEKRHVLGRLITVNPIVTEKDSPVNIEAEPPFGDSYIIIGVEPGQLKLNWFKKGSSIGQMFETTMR

For “Purified A2MR: α-chain of the A2MR receptor purified from human plasma by affinity chromatography on immobilized MeNH2_A2M”, the “neutralization of the infection of DV2” value in assay [1] is on record as “potent neutralization”. Besides, the “protective effect in mice encephalitis model” value in assay [2] is given as “significative protective effect”.

B1: activated A2M: purified human A2M activated by incubation with methylamine (protein)
chain: SVSGKPQYMVLVPSLLHTETTEKGCVLLSYLNETVTVSASLESVRGNRSLFTDLEAENDVLHCVAFAVPKSSSNEEVMFLTVQVKGPTQEFKKRTTVMVKNEDSLVFVQTDKSIYKPGQTVKFRVVSMDENFHPLNELIPLVYIQDPKGNRIAQWQSFQLEGGLKQFSFPLSSEPFQGSYKVVVQKKSGGRTEHPFTVEEFVLPKFEVQVTVPKIITILEEEMNVSVCGLYTYGKPVPGHVTVSICRKYSDASDCHGEDSQAFCEKFSGQLNSHGCFYQQVKTKVFQLKRKEYEMKLHTEAQIQEEGTVVELTGRQSSEITRTITKLSFVKVDSHFRQGIPFFGQVRLVDGKGVPIPNKVIFIRGNEANYYSNATTDEHGLVQFSINTTNVMGTSLTVRVNYKDRSPCYGYQWVSEEHEEAHHTAYLVFSPSKSFVHLEPMSHELPCGHTQTVQAHYILNGGTLLGLKKLSFYYLIMAKGGIVRTGTHGLLVKQEDMKGHFSISIPVKSDIAPVARLLIYAVLPTGDVIGDSAKYDVENCLANKVDLSFSPSQSLPASHAHLRVTAAPQSVCALRAVDQSVLLMKPDAELSASSVYNLLPEKDLTGFPGPLNDQDDEDCINRHNVYINGITYTPVSSTNEKDMYSFLEDMGLKAFTNSKIRKPKMCPQLQQYEMHGPEGLRVGFYESDVMGRGHARLVHVEEPHTETVRKYFPETWIWDLVVVNSAGVAEVGVTVPDTITEWKAGAFCLSEDAGLGISSTASLRAFQPFFVELTMPYSVIRGEAFTLKATVLNYLPKCIRVSVQLEASPAFLAVPVEKEQAPHCICANGRQTVSWAVTPKSLGNVNFTVSAEALESQELCGTEVPSVPEHGRKDTVIKPLLVEPEGLEKETTFNSLLCPSGGEVSEELSLKLPPNVVEESARASVSVLGDILGSAMQNTQNLLQMPYGCGEQNMVLFAPNIYVLDYLNETQQLTPEVKSKAIGYLNTGYQRQLNYKHYDGSYSTFGERYGRNQGNTWLTAFVLKTFAQARAYIFIDEAHITQALIWLSQRQKDNGCFRSSGSLLNNAIKGGVEDEVTLSAYITIALLEIPLTVTHPVVRNALFCLESAWKTAQEGDHGSHVYTKALLAYAFALAGNQDKRKEVLKSLNEEAVKKDNSVHWERPQKPKAPVGHFYEPQAPSAEVEMTSYVLLAYLTAQPAPTSEDLTSATNIVKWITKQQNAQGGFSSTQDTVVALHALSKYGAATFTRTGKAAQVTIQSSGTFSSKFQVDNNNRLLLQQVSLPELPGEYSMKVTGEGCVYLQTSLKYNILPEKEEFPFALGVQTLPQTCDEPKAHTSFQISLSVSYTGSRSASNMAIVDVKMVSGFIPLKPTVKMLERSNHVSRTEVSSNHVLIYLDKVSNQTLSLFFTVLQDVPVRDLKPAIVKVYDYYETDEFAIAEYNAPCSKDLGNA
One may read the IC50 as the concentration at which inhibition is half-maximal. High values mean weaker potency, low ones greater potency. As usually defined, the Kd is the free concentration of one partner at which half of the binding sites on the other are occupied at equilibrium, for simple one-to-one binding. Low readings indicate tighter binding, high ones weaker binding. For the molecule B1, the IC50 in assay [3] was roughly 100 nM. Moreover, the Kd in assay [4] was determined as 100 nM. Further, in assay [5], the “infection of Vero cells by serotype 3 of DV” value was “inhibited infection”. Further, the “infection of Vero cells by serotype 1 of DV” value in assay [6] is “inhibited infection”. The “binding to the surface of Vero cells” value in assay [7] is “concentration-dependant and saturable binding behavior”.
